In article PMC8299219 (Cell, 2021):

B1: C81A10 (antibody, V domains shown)
VH: QVQLVQSGAEVKKPGSSVKVSCKASGGTFRSYAISWVRQAPGQGLEGMGGIIPIFGTTNYAQKFQGRVTITADESTSTAYMELSSLRSEDTAVYYCARSEWGDGYNQYYFDQWGQGALVTVSS
VL: DIQMTQSPSSLSAFVGDRVTITCRASQSISRYLNWYQQKPGKAPKVLIYAASSLQSGVPSRFSGSGSGTDFTLTISSLQPEDFATYYCQQSYSTLTFGGGTKVEIK
B2: C53E12 (antibody, V domains shown)
VH: QVQLVESGGGVVQPGRSLRLSCAASGFTFSSYGMHWVRQAPGKGLEWVAVISYDGSNKYYVDSVKGRFTISRDNSKNTLYLQMNSLRAEDTAVYYCAKGTEIVVVPADYFDYWGQGTLVTVSS
VL: EIVLTQSPATLSLSPGERATLSCRASQSVSSYLAWYQQKPGQAPRLVIYDASNRATGIPARFSGSGSGTDFTLTISSLEPEDFAVYYCQQRSNWPGFTFGPGTKVDIK
B3: C15C9 (antibody, V domains shown)
VH: QVQLQQWGTGLLKPSETLSLTCAVYGGSFSGYYWTWIRQPPGKGLEWIGEINHSGTTTYNPSLKSRVTISVEKSENQFSLKLNSVTAADTAVYYCARGSRCSSASCLFYYFYYIDVWGKGTTVTVSS
VL: not shown
B4: C15E7 (antibody, V domains shown)
VH: QVQLQQWGAGLLKPSETLSRTCAVYGGSFSGYYWTWIRQPPGMALEWIGDINHGGVTNYNPSLKSRVTISVDTSKNQFSLRLTSVTAADTAVYYCARRLLGDPRPASSSLSLRRVSYMDVWDKGTTVTVSS
VL: DIQMTQSPSSMPASVGDRVTITCRASQSISNYLNWYQQEPGRAPKLLIYGASSLQSGVPSRFGGSGSGTEFTLTITALQPEDSATYYCQQIHGAPPITFGQGTRLEIK
B5: C15C12 (antibody, V domains shown)
VH: EVQLLESGGGLVQPGGSLRLSCAASAFTFTNYDMNWVRQAPGKGLEWVSTISGSGDITYYADFVKGRFTISRDNSKNTLNLQMNSLRADDTAVYYCAKDFARRGYNGYEEKFISMFGGVIADYGMDVWGQGTTVTVSS
VL: EIVLTQSPTTLSLSPGERVTLSCRASQSISSYLAWYQQKPGQAPRLLIYRASNRATGISARFSGSGSGTDFTLTISSLEPEDFAVYYCQQRSNWPLTFGGGTKVEIK
B6: C18C8 (antibody, V domains shown)
VH: EVQLVESGGGLVQPGRSLRLSCTTSGFTFGDYAMSWVRQAPGKGLEWVGFIRSKAYGGTTEYAASVKGRFTISRDDSKSIAYLQMNSLKTEDTAVYCCTRGLKVEPYYFDYWGQGTLVTVSS
VL: not shown
B7: G32Q6 (antibody, V domains shown)
VH: EVQLLESGGGLVQPGGSLRLSCAASGFTFSNYAMNWVRQAPGKGLEWVSGISGNGVNTFYADSVKGRFTISRDNSRNTLYLQMNSLRAEDTAVYYCAKAIQTYSNYVLGADYWGQGTLVTVSS
VL: QSALTQPRSVSGSPGQSVTISCTGTNSDVGNYNFVSWYQQHPGRAPKLMIYDVSKRPSGVPDRFSGSKSDNTASLTISGLQAEDQADYYCCSYATSYTFRVVFGGGTKLTVL
B8: C7A2 (antibody, V domains shown)
VH: EVQLLESGGGLVQPGGSLRLSCAASGFIFSNYVVSWVRQAPGKGLEWVSGISVNGDTTFYADSVKGRFTISRDNSKNTLYLQMNSLRAEDTAVYYCAKVRGYCSGGRGCMDVWGQGTTVTVSS
VL: DIQLTQSPSSLSASVGDRVTITCQASQDIGNTLAWYQQKPGKAPNLLIYDASSLQSGVPSRFSGSVSGTDFTLTITSLQLEDFATYYCQQFNTYPALTFGGGTKVEIK
B9: C83A5 (antibody, V domains shown)
VH: QVQLVESGGGVVQPGRSLRLSCAASRFTFSSYGMHWVRQAPGKGLEWVAVIWFDGTNKYYADSVKGRFTISRDNSKNTLYLQMNSLRVEDTAVYYCARDGAYYDRSAYYYRLKFYFDFWGQGTLVTVSS
VL: SYELTQPPSVSVSPGQTARITCSGDALPNQYVYWYHQKPGQAPVLVIYKDSERPSGIPERFSGSSSGTTVTLTISGVQAEDEADYYCQSADSSGNIGVFGGGTKLTVL
B10: C12D2 (antibody, V domains shown)
VH: EVQLVESGGGLVQPGGSLRLSCAASGFTFSSYWMSWVRQAPGKGLEWVANIKQDGSEKYYVDSVKGRFIISRDNAKNSLYLQMNSLRAEDTAVYYCARDQRRFLEWLSYYYYMDVWGKGTTVTVSS
VL: not shown
B11: C15C7 (antibody, V domains shown)
VH: QVQLVESGGGVVQPGRSLRLSCAASGFTFSSYGMHWVRQAPGKGLEWVAVISYDGSNKYYADSVKGRFTISRDNSKNTLYLQMNSLRAEDTAVYYCAKDAYYYDSSGYYPRDYYYYYYYMDVWGKGTTVTVSS
VL: not shown
B12: G32A3 (antibody, V domains shown)
VH: QVQLVQSGAEVKRPGASVKVSCKASGYTFTSYGITWVRQAPGQGLEWMGWISAYNGNTNYAQKLQGRVTMTTDSSTSTAYMELRSLRSDDTAVYYCARTPNSVITMIVVVTQTLDYWGQGTLVTVSS
VL: QSALTQPASVSGSPGQSITISCTGTSSDVGGYNYVSWYQQHPGKAPKLMIYEVSNRPSGVSNRFSGSKSGNTASLTISGLQAEDEADYYCSSYTSSSTRVFGGGTKLTVL
B13: C83A4 (antibody, V domains shown)
VH: QVQLQESGPGLVKPSQTLSLTCTVSGGSISSGGYYWSWIRQHPGKGLEWIGYIYYSGSTYYNPSLKSRVTISVDTSKNQFSLKLTSVTAADTAVYYCASEPTFRQSSISWYHYGMDVWGQGTTVTVSS
VL: QSALTQPASVSGSPGQSITISCTGTSSDVGRYNYVSWYQQHPGKAPKLMIYDVSNRPSGVSNRFSGSKSGNTASLTISGLQAEDEADYYCSSYTSSSTLVFGTGTKVTVL
B14: C83B7 (antibody, V domains shown)
VH: QVQLVQSGAEVKKPGASVKVSCKASGYTFTSYYLHWVRQAPGQGLEWMGIINPSGGSTSYAQKFQGRVTMTRDTSTSTVYMELRSLRSEDTAVYYCARDSAPRDYDFWSGYYFGVNGKGSSMDVWGQGTTVTVSS
VL: QSALTQPPSASGSPGQSVTISCTGTSSDVGGYNYVSWYQQHPGKAPKLMIYEVSKRPSGVPDRFSGSKSGNTASLTVSGLQAEDEADYYCSSYAGSNNYVFGTGTKVTVL
B15: C89A5 (antibody, V domains shown)
VH: QVQLVESGGGVVQPGRSLRLPCAASGFSFSGYAMHWVRQAPDKGLEWMAVISFDGSTKTYADSVRGRFTISRDNSKNTLYLQIHTLRTEDTAVYYCARGGGGGDGAFDNWGGGTMVTVSS
VL: DVVMTQSPLSLPVTLGQPASISCRSSQSLVYSDGNTYLIWFQQRPGQSPRRLIYKVSNRDSGVPDRFSGSGSGTDFTLKISRVEADDVGVYYCMQTTHWPYTFGQGTKLEIK
B16: C93D10 (antibody, V domains shown)
VH: QVQLVQSGAEVKKPGASVKVSCKASGYTFTSYYMHWVRQAPGQGLEWMGIINPSGGSTSYAQKFQGRVTMTRDTSTSTVYMELSSLRSEDTAVYYCARDPSSDYDFWSGWGNQYYYYGMDVWGQGTTVTVSS
VL: DIQLTQSPSFLSASVGDRVTITCRASQGISSYLAWYQQKPGKAPKLLIYAASTLQSGVPSRFSGSGSGTEFTLTISSLQPEDFATYYCQQLNSYPFTFGPGTKVDIK

Each binder was assayed against SARS-CoV-2 S ectodomain trimer, prefusion-stabilized, 2P variant (Wrapp et al., 2020) (SARS-CoV-2, Wuhan-Hu-1, UniProt P0DTC2, stabilised).
B1: binds. B2: binds. B3: binds. B4: binds. B5: binds. B6: binds. B7: binds. B8: binds. B9: binds. B10: binds. B11: binds. B12: binds. B13: binds. B14: binds. B15: binds. B16: binds.
